Source: the supplement of paper PMC10567573
± gives the standard deviation.

Test: protein stability index of a GFP-peptide fusion (GPS, HEK-293T) (PSI 1-6); higher = more stable
Conditions: c terminus: a fixed tail appended
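Note: 24-mer peptide tiles fused after GFP, lentivirally expressed, FACS-sorted into six equal bins by GFP/DsRed ratio, decoded by Illumina sequencing, PSI is the read-weighted mean bin number.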

Row | Sequence | protein stability index (treatment: DMSO) | protein stability index (treatment: MLN4924 1 uM, 8 h)
1 | TPLPETGYWRVRLWNGDKYAATTT [TRIM39] | 2.47 ± 0.34 | 2.37 ± 0.2
2 | VGLGTCSMFSRVGGIIAPFIPSLK [SLC22A15] | 2.1 ± 0.36 | 2.33 ± 0.45
3 | SVPFSFDPNTAAGWLSVSDDLTSV [TRIM35] | 3.42 ± 0.25 | 3.52 ± 0.23
4 | ATKQLDFTRKTLAEKKQELDKLRN [SASS6] | 4.19 ± 0.26 | 4.43 ± 0.24
5 | QMPQEEVELLPPAPKGKGRKPAAG [BRD3] | 4.98 ± 0.39 | 5.1 ± 0.18
6 | SSDHLFLFGGFTTDKQPLSDAWTY [KLHDC2] | 2.25 ± 0.61 | 2.23 ± 0.063
7 | PDANTWTALPPMNEARHNFGIVEI [GAN] | 2.42 ± 0.34 | 2.51 ± 0.43
8 | SCFLINTADRIIRVYDGREILTCG [RBBP5] | 1.91 ± 0.098 | 1.91 ± 0.27
9 | SRDRRRSSDRSRDSSHERTESQLT [BTBD10] | 5.45 ± 0.32 | 5.5 ± 0.22
10 | DAGEESRVQVLKNEVRRGSPVLLG [TIAF1] | 4.33 ± 0.092 | 4.55 ± 0.24
11 | ETLEASVGPRETEEKVRDLLWAKF [TOR1AIP2] | 3.98 ± 0.22 | 3.92 ± 0.3
12 | VDSAEYSCLKAIVLFTSDACGLSD [NR2F2] | 2.23 ± 0.38 | 2.25 ± 0.31
13 | IPTVKPLKPRPEPPKKPSNWRRKH [ZC2HC1A] | 4.2 ± 0.24 | 4.24 ± 0.11
14 | LGDRLNVEVDTAPTVDLNQVLNET [KRT34] | 4.87 ± 0.15 | 4.96 ± 0.29
15 | NGAKELWFFLQSELKKLKNLEGNE [FUT8] | 2.45 ± 0.47 | 2.48 ± 0.33
16 | CTRPVPRNGGKYCEGRRTRFRSCN [ADAMTS4] | 3.79 ± 0.14 | 4.12 ± 0.24
17 | GFSSGRHRWQVDLQLGDGGGCTVG [TRIM15] | 2.93 ± 0.29 | 3.07 ± 0.27
18 | MRHVEKMCKADLSRNFIERNHMEN [TRIM29] | 3.05 ± 0.16 | 3.1 ± 0.12
19 | SAQLQELVCHVMMGNLVMFRKDSV [INTS3] | 3.07 ± 0.38 | 2.83 ± 0.37
20 | SPSKTDGKELAGTMDGEGTLFQTE [PBXIP1] | 5.31 ± 0.24 | 5.44 ± 0.3
21 | CVHPRGGVIQSVSSWKHGSGTQYV [C18orf25] | 2.58 ± 0.42 | 2.32 ± 0.39
22 | GSPFGLEEPQWVPDKECRRCMQCD [ZFYVE21] | 4.1 ± 0.29 | 4.07 ± 0.28
23 | DGKSLVSVTKEGLELPEDEEEKKK [HSP90AB1] | 5.61 ± 0.2 | 5.44 ± 0.3

Row | Sequence | protein stability index (treatment: DMSO) | protein stability index (treatment: MLN4924 1 uM, 8 h)
24 | KTNLDGMITVQLPEVPANENIKGY [PTPRD] | 4.12 ± 0.4 | 4.24 ± 0.28
25 | KEHPDVQLLEDAILIIQGVLSDIN [NET1] | 2.49 ± 0.73 | 2.47 ± 0.23
26 | FHIMKRKFTNKEWETIRSFKDEWT [AASDHPPT] |  | 2.09 ± 0.16
27 | GRDALLDQIRQGIQLKSVADGQES [WASL] | 5.43 ± 0.36 | 5.22 ± 0.63
28 | FENGQKAAVVHHFESFPAGSTLIF [TOR1AIP2] | 2.05 ± 0.42 | 2.12 ± 0.2
29 | SLEKLLASEPLPWDLRFRIIHETA [RIPK4] | 2.18 ± 0.33 | 2.31 ± 0.33
30 | EALGFSWHDTCFVCAICQINLEGK [PDLIM7] | 2.48 ± 0.82 | 1.63 ± 0.26
31 | KKLTGGANWQPKVAPATWSAGVPP [SNAP91] | 3.27 ± 0.18 | 3.34 ± 0.14
32 | ALADVEVKYIVERTMLDFPQHVSS [NLN] | 2.38 ± 0.36 | 2.39 ± 0.16
33 | GKTPVCHQCHKVIRGRYLVALGHA [PDLIM7] | 2.1 ± 0.1 | 2.72 ± 0.33
34 | SSSASSSFSEEGAVGYSSDSETLD [NFE2L1] | 5.65 ± 0.13 | 5.655 ± 0.043
35 | AEKRKRQAEIENKRRQLEDERRQL [PALM] | 4.68 ± 0.5 | 4.94 ± 0.32
36 | EQLGSGDGIPQVYYFGPCGKYNAM [CSNK1G3] | 2.34 ± 0.14 | 2.56 ± 0.17
37 | ERSRGRSISRGRHARTHPQTALLE [MATN2] | 4.31 ± 0.53 | 4.72 ± 0.3
38 | NIRPADSRWVRDPRYREDPCKQCK [FBXO34] | 4.13 ± 0.36 | 4.28 ± 0.13
39 | DHSGFISLDEFRQTWKLFSSHMNI [PPEF2] | 2.29 ± 0.26 | 2.08 ± 0.36
40 | LWEAEDRQNVPRKVPNHYIAIPEW [CPXM2] | 3 ± 0.31 | 3.02 ± 0.32
41 | TRWYRAPELLVGDTQYGSSVDIWA [CDKL4] | 1.97 ± 0.59 | 2.26 ± 0.39
42 | DNIREAFQIYDKEASGYVDRDMFF [EFHC1] | 3.5 ± 0.29 | 3.42 ± 0.18
43 | AKRNRLAPAHVDEQVFLYENARSG [ZBED1] | 4.3 ± 0.59 | 4.43 ± 0.25
44 | DINNNFPDLNTLLWEAEDRQNVPR [CPXM2] | 3.78 ± 0.35 | 4.15 ± 0.2
45 | VDLELFPSPDMECADVPLLTPSSK [ETS1] | 4.07 ± 0.24 | 4.05 ± 0.2
46 | EQLAALSQAPVNKPKKKKEKKEKE [BRD3] | 5.38 ± 0.2 | 5.67 ± 0.2

Row | Sequence | protein stability index (treatment: DMSO) | protein stability index (treatment: MLN4924 1 uM, 8 h)
47 | FSTGIKMGQHISLAPIHKLEEALY [MNAT1] | 2.28 ± 0.48 | 2.08 ± 0.26
48 | TNCQKVLNMWCCCFFKRRKRKTIQ [CSNK1G3] | 4.01 ± 0.26 | 3.77 ± 0.21
49 | GFTSYLGFGDEDTGLELIAEESNP [MIA2] | 4.61 ± 0.22 | 
50 | GRYSVHNAGISFSVKKQGETVADV [MLH1] | 3.79 ± 0.25 | 3.85 ± 0.37
51 | ALKLIIRLFLVEDLVDSLKLAVFM [RTN3] | 3.69 ± 0.17 | 
52 | ERLFGSAANVVSAKRNRLAPAHVD [ZBED1] | 3.65 ± 0.41 | 3.66 ± 0.34
53 | QSKILKVIRKNIVKKCLELFSELA [HSP90AB1] | 2.47 ± 0.37 | 3.39 ± 0.91
54 | SERDKRPEGYNLKDEEGRLRDPAT [PPP2R2B] | 5.6 ± 0.29 | 5.4 ± 0.18
55 | KAGRRMFPACRVSVTGLDPEARYL [TBX6] | 2.36 ± 0.56 | 1.86 ± 0.2
56 | LTLSQYILLDPILMFFIMAAMLSM [POMT2] | 3.29 ± 0.56 | 2.95 ± 0.69
57 | QNRVFAYLCKRVPHTVLDRQLLCL [CEP70] | 2.46 ± 0.76 | 2.46 ± 0.59
58 | ELNAEKFKNSLLQKELKKAQMAKA [WEE1] | 4 ± 0.84 | 3.42 ± 0.4
59 | DLPWFRTLSWYFLLCVNYFFYGET [CDS2] | 3.95 ± 0.26 | 3.23 ± 0.97
60 | PTQVPAAEDYLTWKEWGFTGVQEV [SPAG8] | 3.5 ± 0.24 | 3.59 ± 0.31
61 | ARIAIRGTIKKIIHQETVSKNGNG [PCMTD2] | 3.01 ± 0.22 | 3.21 ± 0.27
62 | GIREASSGGGGSSSNFHINVEESV [KRT15] | 4.92 ± 0.18 | 5.11 ± 0.28
63 | TEEVKFYQLGEEALLKFREDEGFV [KCNA4] | 4.16 ± 0.3 | 4.3 ± 0.24
64 | EKETQIIASIGRHRYIAYMANQEA [IQUB] | 3.07 ± 0.32 | 2.88 ± 0.46
65 | EVEVVEEAKCCCFFKRKRKKTAQR [CSNK1G1] | 4.4 ± 0.41 | 4.45 ± 0.12
66 | DPTQRILYRDVMLETFGHLLSIGP [ZNF8] | 2.21 ± 0.23 | 2.25 ± 0.22
67 | GTIKKIIHQETVSKNGNGLKNTPR [PCMTD2] | 3.68 ± 0.55 | 4.03 ± 0.4
68 | NLSRDVTEALILQLFSQIGPCKNC [TIA1] | 2.48 ± 0.42 | 2.91 ± 0.6
69 | LNLNYNCISDELLENLCENASTLR [FBXO39] | 3.28 ± 0.16 | 3.29 ± 0.21

Row | Sequence | protein stability index (treatment: DMSO) | protein stability index (treatment: MLN4924 1 uM, 8 h)
70 | VAHVESLQEKSQCALEEYVRSQYP [NR2F2] | 3.6 ± 0.28 | 3.96 ± 0.25
71 | DGSLILVSASRDKTLRVWDLKDDG [WSB1] | 2.74 ± 0.31 | 3.03 ± 0.21
72 | GKSFSQNTNLHTHQRTHTGEKPFT [ZNF75A] | 4.01 ± 0.28 | 4.25 ± 0.35
73 | PHQPVTAITRVSDRFSGETSAAAL [SMTNL2] | 4.32 ± 0.39 | 4.32 ± 0.17
74 | VSLGATGGPPAGPGGVYAGPEPPP [JUNB] | 4.61 ± 0.094 | 4.46 ± 0.31
75 | FRRGEKLRVISDEGGWWKAISLST [SLA] | 3.3 ± 1.1 | 2.13 ± 0.72
76 | QVTCLRTQVLEDSEDSFCRRHPGL [TRAF3IP2] | 4.05 ± 0.2 | 4.08 ± 0.35
77 | DPRVQDFLQRCLESPFSRKLDLWS [NET1] | 2.34 ± 0.25 | 2.27 ± 0.25
78 | NRNQRIVQLIQDTRIHILPSMNPD [CPN1] | 2.95 ± 0.12 | 3 ± 0.25
79 | HPDPAPFCADNPSELPPPMERTGG [DVL3] | 3.41 ± 0.55 | 4.17 ± 0.49
80 | CSCLSDILRFIYSGAFQWEELEED [RHOBTB3] | 2.35 ± 0.41 | 1.88 ± 0.34
81 | LLDLDPEVECLKANTNEVLWAVVA [GOLPH3] | 1.94 ± 0.21 | 2.22 ± 0.41
82 | KPPETSVPVVTPTASTAPPVPATA [SNAP91] | 5.34 ± 0.35 | 5.37 ± 0.18
83 | PLNPKPHKKKSPGEKPHRCPQCGK [ZNF449] | 4.24 ± 0.12 | 4.49 ± 0.35
84 | DCLAAWEEWLLVGTKQGHLLLYRI [VPS39] | 2.92 ± 1.1 | 2.51 ± 0.32
85 | RYESLTDPSKLDSGKELKIDIIPN [HSP90AB1] | 4.33 ± 0.2 | 4.31 ± 0.24
86 | LSSRWKNWWIRGILTLTMISLFFL [CDS1] | 2.54 ± 0.37 | 2.17 ± 0.36
87 | DHSEHLSGSSYRDALQRYGTSHGA [RBMY1A1] | 3.89 ± 0.12 | 4.37 ± 0.38
88 | GANKEVQELLERGLLQLDHRGLRC [RSAD1] | 3.39 ± 0.12 | 3.66 ± 0.31
89 | DMWRSENQNRAYVTLAAHFLGLGA [ZBED1] | 2.13 ± 0.24 | 2.01 ± 0.4
90 | TQTWCTQSWNNQAWNSPFYNCGEE [NANOGP8] | 3.07 ± 0.25 | 3.2 ± 0.12
